# Results published in IntAct's records for PubMed 16888620.
# B1: Serine/threonine-protein kinase Sgk3 (Homo sapiens), Q96BR1 (parent)
# chain: MQRDHTMDYKESCPSVSIPSSDEHREKKKRFTVYKVLVSVGRSEWFVFRRYAEFDKLYNTLKKQFPAMALKIPAKRIFGDNFDPDFIKQRRAGLNEFIQNLVRYPELYNHPDVRAFLQMDSPKHQSDPSEDEDERSSQKLHSTSQNINLGPSGNPHAKPTDFDFLKVIGKGSFGKVLLAKRKLDGKFYAVKVLQKKIVLNRKEQKHIMAERNVLLKNVKHPFLVGLHYSFQTTEKLYFVLDFVNGGELFFHLQRERSFPEHRARFYAAEIASALGYLHSIKIVYRDLKPENILLDSVGHVVLTDFGLCKEGIAISDTTTTFCGTPEYLAPEVIRKQPYDNTVDWWCLGAVLYEMLYGLPPFYCRDVAEMYDNILHKPLSLRPGVSLTAWSILEELLEKDRQNRLGAKEDFLEIQNHPFFESLSWADLVQKKIPPPFNPNVAGPDDIRNFDTAFTEETVPYSVCVSSDYSIVNASVLEADDAFVGFSYAPPSEDLFL
# Variants of: B1
# Conditions: with itch_human ITCH
row,Variant,effect of a mutation on the interaction
1,Y362A,decreasing interaction
